Measured values reported in patent US20210000879A1, “METHODS AND COMPOSITIONS FOR MRNA-BASED MODULATION AND DETECTION OF CELL PHENOTYPES” (Georgia Tech Research Corporation, priority 2018, published 2021).

Experiments:
[1] = system: rat model of complete heart block; assay: Effect of TGF-beta small molecule inhibitor on ventricular pacing with TBX18 mRNA; assay type: in vivo; conditions: A83-01 released by osmotic pump
Procedure: On Day 0, an osmotic pump releasing A83-01 (a TGF-beta inhibitor, Sigma Aldrich) was implanted into the rats. On Day 1, TBX18 mRNA was injected into the rats and a telemetry device was also implanted. Two doses of TBX18 mRNA were given to the rats: (i) a low dose of 100 μg TBX18 mRNA with 68.4 μl RNA-free phosphate-buffered saline (PBS), or (ii) a high dose of 300 μg TBX18 mRNA with 205 μl RNA-free PBS. A continuous telemetry recording of each rat's electrocardiogram (ECG) was made for 21 days after implantation of the telemetry device. In addition, 3-lead surface ECGs were performed on anesthetized animals on Days 7, 14, and 21 along with an isoproterenol challenge. The heart was harvested from each animal on Day 21.
The inventors then determined the effects of including a TGF-beta small molecule inhibitor on ventricular pacing with TBX18 mRNA (FIG. 16).

[2] = system: neonatal rat ventricular cardiomyocytes (NRVMs); assay: CatCh-V5 expression time course by imaging and flow cytometry; assay type: cell-based; conditions: 24 hour pulse of mRNA; Viromer Red
Procedure: (§1) As a first step, the inventors expressed CatCh in neonatal rat ventricular cardiomyocytes (NRVMs) using IVT mRNA. Transfection conditions were varied using GFP mRNA. After identifying the optimal vehicle for transfection (Viromer Red), the expression of the protein of interest, CatCh-V5, was assessed after a 24 hour pulse of mRNA. […] CatCh-V5 localized to the membrane of transfected cells roughly 12 hours after transfection. […] The inventors next evaluated the function of transfected NRVMs. CatCh is an opsin, which induces a membrane depolarization in response to blue light stimulation. CatCh transfected NRVMs were exposed to a range of optical intensities (0 to 100% power) using 475 nm blue LED light. At each light intensity, the inventors scanned a range of stimulation durations (1 to 15 milliseconds). A train of monophasic square waves at a frequency of 2 Hz for a total of 30 seconds was utilized. The inventors compared the capture rate of CatCh versus Channelrhodopsin 2 (ChR2), a commonly used opsin. […] Cells were then subjected to blue light stimulation and analyzed for capture at different transfection amounts and timepoints.

[3] = system: neonatal rat ventricular myocytes (NRVMs); assay: MEA light pacing of NRVMs transfected with ChR2 or CatCH mRNA; assay type: cell-based
Source text: For proper characterization of cells transfected with opsins, in addition to protein expression, another metric, function, can assist in properly optimizing the use of mRNA as an expression vector. Functional characterization can be performed with the use of a multi-electrode array (MEA). An MEA device uses electrodes to measure the field potential of nearby cells. Changes in field potential in cardiomyocytes can be detected in an amplitude and location-specific manner depending on the pickup electrode. The MEA device used, a Maestro from Axion Biosystems, allows the simultaneous measurement and light excitation of 16 electrodes per well in a 48 well plate. By employing primary ventricular cardiomyocytes from neonatal rats (NRVMs), functional expression of an opsin such as ChR2 can be measured as a synchronization event between electrical activity and pulsed light excitation from the LEDs embedded in the Axion Lumos device.
Pacing cardiac myocytes allows the screening of new drugs in a controlled environment, where the effect on beat frequency and waveforms can be measured against predicted values in the presence/absence of drugs. The inventors transfected neonatal rat ventricular myocytes (NRVMs) with mRNA encoding ChR2 and a modified ChR2 with a single amino acid substitution, CatCH. NRVMs were plated on MEA plates and the next day were transfected with ChR2 or CatCH mRNA at varying concentrations in triplicate wells using Viromer Red (Lipocalyx). […] Furthermore, when interrogated with excitation rates of 1 hz, 2 hz, and 3 hz, CatCH transfected cells were able to be driven at higher beat rates (3 hz) up to 72 hours post-transfection (FIG. 8) compared to ChR2 transfected cells. As the amount of mRNA and structure of the opsin are very similar, this difference can be inferred as due to enhanced opsin sensitivity—fewer opsins per cell were necessary to drive cardiac action potentials. When opsin expression was low, such as at timepoints several days following transfection, cardiac cells could only be driven at the slower rate of 1 hz successfully.

[4] = system: neonatal rat ventricular cardiomyocytes (NRVMs); assay: Capture of CatCh transfected NRVMs by 475 nm blue light stimulation; assay type: cell-based
Procedure: as §1

[5] = system: Human iPS cell-derived cardiomyocytes; assay: MEA functional testing of mRNA-expressed opsins with light excitation; assay type: cell-based
Procedure: Human iPS cell-derived cardiomyocytes were seeded into 48 well Axion MEA plates and cultured for 2 weeks until completely synchronized electrical activity (beat rate) was observed. Cells were transfected with ChR2 mRNA, JAWs mRNA, delivery vehicle only, or a mixture of both mRNAs using a modified PEI derivative (Lypocalyx Gmbh). Transfected cells were assayed using the Axion Maestro MEA and Lumos light excitation device at 6 hours and 24 hours post transfection. Assays were comprised of electrical readout (16 electrodes per well) with either no stimulus, blue light stimulus (drives firing in ChR2-transfected cells), orange light stimulus (inhibits firing in JAWs-transfected cells), or blue light impulse stimulus with a period of constant orange light.
As a preliminary step, the inventors determined the optimal amount of delivery vehicle to transfect cells for adequate function of the expressed mRNA, defined as complete control of beat rate with ChR2 and conversely complete inhibition of firing with JAWs. […] Delivery vehicle alone had no effect on native cell beat rates, thus it is likely that higher amounts of protein can be generated if opsin function is required more rapidly. […] Using 0.1 ul of delivery vehicle, all three wells (100%) were paced via light (FIG. 3C).
The inventors next tested expression and function of ChR2 and JAWS (inhibitory opsin) in iPS-derived cardiomyocytes. Here, 500 ng each of ChR2 and JAWS mRNA were delivered to iPS-derived cardiomyocytes in an MEA plate (FIG. 9). The next day, cells were paced using pulsed blue light stimulation (arrows). At the same time, orange light was used for several seconds (bars) to prevent cardiomyocytes from beating.

With `Cc1cccc(-c2nn(C(=S)Nc3ccccc3)cc2-c2ccnc3ccccc23)n1` [A83-01, reference compound] the “effect on ventricular pacing / block” value [1] was “reversed the block”.

B1: CatCH: mRNA encoding a modified ChR2 with a single amino acid substitution, CatCH (nucleic acid)
DNA: GGGAAATAAGAGAGAAAAGAAGAGTAAGAAGAAATATAAGAGCCACCATGGATTACGGCGGAGCCCTGTCTGCCGTGGGCAGAGAACTGCTGTTCGTGACCAACCCCGTGGTCGTGAACGGCAGCGTGCTGGTGCCTGAGGACCAGTGTTACTGCGCCGGCTGGATCGAGAGCAGAGGCACAAACGGCGCCCAGACCGCCTCTAACGTGCTGCAGTGGCTGGCCGCTGGCTTCAGCATCCTGCTGCTGATGTTCTACGCCTACCAGACCTGGAAGTCTACCTGCGGCTGGGAAGAGATCTACGTGTGCGCCATCGAGATGGTCAAAGTGATCCTGGAATTCTTCTTCGAATTCAAAAACCCCTCCATGCTGTACCTGGCCACCGGCCACAGAGTGCAGTGGCTGAGATACGCCGAGTGGCTGCTGACCTGCCCCGTGATCTGCATCCACCTGAGCAACCTGACCGGCCTGTCCAACGACTACAGCAGACGGACCATGGGCCTGCTGGTGTCCGACATCGGCACAATCGTGTGGGGCGCCACAAGCGCCATGGCCACAGGCTACGTGAAAGTGATCTTCTTCTGCCTGGGCCTGTGCTACGGCGCCAACACATTCTTCCACGCCGCCAAGGCCTACATCGAGGGCTACCACACAGTGCCCAAGGGCAGATGCAGACAGGTCGTGACAGGCATGGCCTGGCTGTTCTTCGTGTCCTGGGGCATGTTCCCCATCCTGTTCATCCTGGGCCCTGAGGGCTTCGGCGTGCTGTCTGTGTACGGCTCTACCGTGGGCCACACCATCATCGACCTGATGAGCAAGAACTGTTGGGGACTGCTGGGCCACTACCTGAGAGTGCTGATCCACGAGCACATCCTGATTCACGGCGACATCAGAAAGACCACCAAGCTGAACATCGGCGGCACCGAGATCGAGGTGGAAACCCTGGTGGAAGATGAGGCCGAGGCTGGCGCTGTGCCAGCCGCTGCTACAGGTAAGCCTATCCCTAACCCTCTCCTCGGTCTCGATTCTACGTGATAAGCTGCCTTCTGCGGGGCTTGCCTTCTGGCCATGCCCTTCTTCTCTCCCTTGCACCTGTACCTCTTGGTCTTTGAATAAAGCCTGAGTAGGAAGGC
modifications: mRNA transcribed from DNA
B1 was tested, and the “time after transfection to membrane localization” value [2] was “roughly 12 hours”, the “time by which expression dropped off significantly” value [2] was at most 5 days and the “time of peak expression” value [2] was 24 h. For the same molecule, the “light sensitivity compared with ChR2 based on MEA measurements” value ([3]; 125 ng of CatCH versus 1000 ng of ChR2) was “much higher sensitivity than ChR2”, the “maximum beat rate comparison with ChR2” value ([3]; 1 hz, 2 hz, 3 hz LED pulsing, time course) was “able to sustain higher frequencies” and the “LED light intensity to which the opsin responds” value ([3]; 24 hours post transfection) was 5%. For the same molecule, the “light required for electrical response relative to ChR2” value ([3]; 24 hours post-transfection) was 15 times, the “time post-transfection up to which cells could be driven at 3 hz” value ([3]; LED pulsing, maximum intensity excitation light) was “up to 72 hours” and the “beat rate at which cells were able to be driven” value ([3]; excitation rates of 1 hz, 2 hz, and 3 hz, up to 72 hours post-transfection) was 3 hz. For the same molecule, the “optimal RNA dose to achieve reliable pacing over time” value ([4]; 0.1, 1 and 10 ng/1000 cells tested) was 1 ng/1,000 cells, the “capture rate versus Channelrhodopsin 2 (ChR2)” value ([4]; 475 nm blue LED, 0 to 100% power, 1 to 15 milliseconds, 2 Hz for 30 seconds) was “superior sensitivity” and the “days post-transfection with highest capture rates at lowest stimulation thresholds” value ([4]; blue light stimulation) was 1 to 3 days.

B2: JAWS mRNA: mRNA encoding the inhibitory opsin JAWS, activated by constant orange or red light (nucleic acid)
chain: GGGAAATAAGAGAGAAAAGAAGAGTAAGAAGAAATATAAGAGCCACCATGACCGCCGTGTCTACCACAGCCACAACAGTGCTGCAGGCCACACAGAGCGACGTGCTGCAAGAGATCCAGAGCAACTTCCTGCTGAACAGCAGCATCTGGGTCAACATTGCCCTGGCCGGCGTTGTGATCCTGCTGTTTGTGGCCATGGGCCGCGATCTGGAAAGCCCTAGAGCCAAGCTGATCTGGGTCGCCACAATGCTGGTGCCCCTGGTGTCTATCAGCAGCTATGCCGGACTGGCCTCTGGCCTGACAGTGGGCTTTCTGCAAATGCCTCCTGGACACGCCCTGGCTGGACAAGAAGTTCTGTCTCCCTGGGGCAGATACCTGACCTGGACCTTCAGCACCCCTATGATTCTGCTGGCCCTGGGACTGCTGGCCGATACAGATATCGCCAGCCTGTTCACCGCCATCACCATGGACATCGGGATGTGTGTGACAGGCCTGGCCGCTGCTCTGATCACAAGCAGCCATCTGCTGAGATGGGTGTTCTACGGAATCAGCTGCGCCTTCTTCGTGGCCGTGCTGTATGTGCTGCTGGTGCAGTGGCCTGCCGATGCTGAAGCTGCCGGAACCTCTGAGATCTTCGGCACCCTGAGAATCCTGACCGTGGTGCTGTGGCTGGGCTACCCTATTCTGTTTGCCCTGGGCTCTGAAGGCGTGGCACTGCTGTCTGTGGGAGTGACAAGCTGGGGCTATAGCGGCCTGGACATCCTGGCCAAATACGTGTTCGCCTTTCTGCTCCTCAGATGGGTCGCCGCCAATGAGGGAACAGTGTCTGGCTCTGGCATGGGCATTGGATCTGGCGGAGCTGCCCCTGCTGATGATCCAGCTGCTGCCACCTATCCTTACGACGTGCCCGACTACGCCTGATGAGCTGCCTTCTGCGGGGCTTGCCTTCTGGCCATGCCCTTCTTCTCTCCCTTGCACCTGTACCTCTTGGTCTTTGAATAAAGCCTGAGTAGGAAGGCTCGCTTTCTTGCTGTCCAATTTCTATTAAAGGTTCCTTTGTTCCCTAAGTCCAACTACTAAACTGGGGGATATTATGAAGGGCCTTGAGCATCTGGATTCTGCCTAATAAAAAACATTTATTTTCATTGCGC
B2 was tested, and the “opsin function in dual transfection” value ([5]; 500 ng each of ChR2 and JAWS mRNA, next day, pulsed blue light and orange light) was “function of both opsins”, the “inhibition of beating under continuously applied orange light” value ([5]; period of 10 seconds orange light) was “inhibited beating completely” and the “time post-transfection at which complete capture (synchronization or complete inhibition) was observed” value ([5]; second highest and highest amounts of delivery vehicle) was 24 h.
